For five molecules, Kd, koff and kon results are on record in article PMC4300205, “Human Cerberus Prevents Nodal-Receptor Binding, Inhibits Nodal Signaling, and Suppresses Nodal-Mediated Phenotypes” (PLoS ONE, 2015).

First the molecules themselves.
T1: Human Cerberus-hIgg-Fc (human, UniProt O95813 18-267)
T1 construct: signal peptide in the construct; also called Cerberus-Fc; full-length Cerberus-Fc; source: CHO cells, purified from conditioned medium (Protein A, SEC); not shown: Fc (human IgG1), C-terminal, kept
T1 sequence (looked up): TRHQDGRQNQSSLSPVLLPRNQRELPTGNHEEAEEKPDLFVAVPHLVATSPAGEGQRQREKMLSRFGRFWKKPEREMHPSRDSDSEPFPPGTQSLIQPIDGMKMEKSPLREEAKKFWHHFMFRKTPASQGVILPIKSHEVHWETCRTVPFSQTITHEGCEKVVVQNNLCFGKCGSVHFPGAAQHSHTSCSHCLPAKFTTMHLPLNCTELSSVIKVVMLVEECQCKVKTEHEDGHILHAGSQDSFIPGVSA

T2: Human Cerberus-hIgg-Fc (human), O95813
T2 chain: T1 sequence (looked up)

T3: Recombinant Activin A (human, UniProt P08476 311-426)
T3 construct: Activin A (inhibin beta A chain), recombinant; source: bought: R&D Biosystems or Life Technologies; also produced in-house
T3 sequence (looked up): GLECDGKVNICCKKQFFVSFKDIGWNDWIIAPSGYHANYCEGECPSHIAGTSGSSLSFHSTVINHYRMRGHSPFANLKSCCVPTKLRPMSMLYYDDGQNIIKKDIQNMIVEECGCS

T4: BMPRII-Fc (human, UniProt Q13873 27-150)
T4 construct: type II receptor BMPRII, human, extracellular domain-Fc fusion; Bought protein; source: bought: R&D Biosystems or Life Technologies
T4 sequence (looked up): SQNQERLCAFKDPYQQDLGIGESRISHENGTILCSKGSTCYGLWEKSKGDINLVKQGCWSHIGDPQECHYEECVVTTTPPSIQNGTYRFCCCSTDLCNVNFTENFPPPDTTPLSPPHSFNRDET

T5: Cripto-1-Fc (human, UniProt P13385 31-151)
T5 construct: signal peptide in the construct; Cripto1 (1-151), amplicon from cDNA (Thermo Scientific) fused to the hIgg1-Fc domain by PCR; source: CHO cells, purified from conditioned medium (Protein A, SEC)
T5 sequence (looked up): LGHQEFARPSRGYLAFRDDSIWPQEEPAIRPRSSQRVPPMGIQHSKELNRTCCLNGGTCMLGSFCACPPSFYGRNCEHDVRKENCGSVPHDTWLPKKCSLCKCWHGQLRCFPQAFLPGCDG

B1: Recombinant GDF-11 (ligand, human, UniProt O95390 299-407, looked up)
chain: NLGLDCDEHSSESRCCRYPLTVDFEAFGWDWIIAPKRYKANYCSGQCEYMFMQKYPHTHLVQQANPRGSAGPCCTPTKMSPINMLYFNDKQQIIYGKIPGMVVDRCGCS
notes: GDF-11, recombinant; source: bought: R&D Biosystems or Life Technologies
B2: Recombinant BMP-2, P12643 283-396 (ligand)
chain: QAKHKQRKRLKSSCKRHPLYVDFSDVGWNDWIVAPPGYHAFYCHGECPFPLADHLNSTNHAIVQTLVNSVNSKIPKACCVPTELSAISMLYLDENEKVVLKNYQDMVVEGCGCR
B3: human ACTRIIB-hIgg-Fc (Fc fusion, UniProt Q13705 19-120, looked up)
chain: SGRGEAETRECIYYNANWELERTNQSGLERCEGEQDKRLHCYASWRNSSGTIELVKKGCWLDDFNCYDRQECVATEENPQVYFCCCEGNFCNERFTHLPEAG
notes: signal peptide in the construct; extracellular domain of human ActRIIB (1-120), joined to human IgG1 Fc by a 22 amino acid linker with a TEV site, a glycine/serine rich region and a FLAG-tag; Synthetic gene from GeneArt; also called ACTRIIB-Fc; source: CHO cells, purified from conditioned medium (Protein A, SEC)
B4: human ALK4-hIgg-Fc (Fc fusion, UniProt P36896 24-110, looked up)
chain: SGPRGVQALLCACTSCLQANYTCETDGACMVSIFNLDGMEHHVRTCIPKVELVPAGKPFYCLSSEDLRNTHCCYTDYCNRIDLRVPS
notes: signal peptide in the construct; extracellular domain of human ALK4 (1-110), joined to human IgG1 Fc by a 22 amino acid linker with a TEV site, a glycine/serine rich region and a FLAG-tag; Synthetic gene from GeneArt; also called ALK4-Fc; source: CHO cells, purified
B5: recombinant human Nodal (ligand, UniProt Q96S42 238-347, looked up)
chain: HHLPDRSQLCRKVKFQVDFNLIGWGSWIIYPKQYNAYRCEGECPNPVGEEFHPTNHAYIQSLLKRYQPHRVPSTCCAPVKTKPLSMLYVDNGRVLLDHHKDMIVEECGCL
notes: Nodal, human, recombinant (RnD Systems); source: bought: RnD Systems

Common to all, as to test: SPR; Biacore 2000; 200-300 RU of Fc fusion captured by anti-human IgG (Fc) antibody on a CM5 chip; concentration series of ligand injected at 50 ul/min; 25 C; HBS-EPS (0.01 M HEPES, 0.5 M NaCl, 3 mM EDTA, 0.005% Tween 20, pH 7.4); 1:1 Langmuir model with mass transport; Kd = kd/ka
The target in test [1] is T1, Human Cerberus-hIgg-Fc. The following applies: both partners purified.
For test [2], the target named is T2, Human Cerberus-hIgg-Fc (human), O95813. The following applies: remark: other sources report otherwise.
The next test addresses T3, Recombinant Activin A. As to conditions: both partners purified.
For the test “recombinant human Nodal”, the target named is B5. As to conditions: both partners purified.
Test [3] deals with T1, Human Cerberus-hIgg-Fc. As to conditions: both partners purified. This is another data set of the same source.
The next test has as its target T4, BMPRII-Fc. As to conditions: both partners purified.
The target of another test is T6, human Cryptic-hIgg-Fc (human, UniProt P0CG37 26-158).
T6 construct: signal peptide in the construct; human Cryptic (1-158), joined to human IgG1 Fc by a 22 amino acid linker with a TEV site, a glycine/serine rich region and a FLAG-tag; Synthetic gene from GeneArt; also called Cryptic-Fc; source: CHO cells, purified from conditioned medium (Protein A, SEC)
T6 sequence (P0CG37 26-158): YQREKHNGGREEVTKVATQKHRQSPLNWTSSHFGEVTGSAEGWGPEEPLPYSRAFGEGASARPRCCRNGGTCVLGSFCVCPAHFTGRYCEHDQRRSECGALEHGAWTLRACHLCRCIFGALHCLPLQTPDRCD
As to conditions: both partners purified.

Another test addresses T5, Cripto-1-Fc. As to conditions: both partners purified.

Take B1: in the test with Human Cerberus-hIgg-Fc [1], binding was characterised by a dissociation constant (Kd) of 5800 nM, the koff is 0.014 s⁻¹ and the kon worked out at 1200 M⁻¹ s⁻¹.

In test [2], B2 came in with a Kd of 3000 nM, a koff of 0.072 s⁻¹ and a kon of 24000 M⁻¹ s⁻¹.

For the molecule B3, in the test with Recombinant Activin A, the Kd is 0.018 nM, the dissociation rate constant (koff) was determined as 2.7e-05 s⁻¹ and the kon amounted to 1.5e+06 M⁻¹ s⁻¹. Further, in the test with recombinant human Nodal, the Kd was about 10 nM, the koff is about 0.00049 s⁻¹ and the kon is about 49000 M⁻¹ s⁻¹.

As to B4, in the test with Recombinant Activin A, the dissociation constant Kd is 2.4 nM, the koff is 0.00048 s⁻¹ and the on-rate (kon) worked out at 200000 M⁻¹ s⁻¹. Further, in the test with recombinant human Nodal, the Kd is about 15 nM, the koff was about 0.00032 s⁻¹ and the kon is about 46000 M⁻¹ s⁻¹.

As to B5, the Kd is 1 nM in the test with Human Cerberus-hIgg-Fc [3]; 0.149 nM with BMPRII-Fc; 1.1 nM with Human Cerberus-hIgg-Fc [1]; 2000 nM with human Cryptic-hIgg-Fc; 16 nM with Cripto-1-Fc. The koff stood at 4.6e-05 s⁻¹ with BMPRII-Fc, 1.4e-05 s⁻¹ in the test with Human Cerberus-hIgg-Fc [1], 0.001 s⁻¹ with human Cryptic-hIgg-Fc and 0.00026 s⁻¹ with Cripto-1-Fc. In addition, the kon with BMPRII-Fc was found to be 310000 M⁻¹ s⁻¹; in the test with Human Cerberus-hIgg-Fc [1] it was 13000 M⁻¹ s⁻¹; with human Cryptic-hIgg-Fc, 550 M⁻¹ s⁻¹; with Cripto-1-Fc, 10000 M⁻¹ s⁻¹.

As a reminder, the Kd is a measure of binding affinity in units of concentration. One may read the koff as a measure of how fast the partners let go of each other. What is called kon is a measure of how fast the partners come together.
